Earlier results in PMC2975797.
pKd: −log10 of the molar value.

Target: von Willebrand factor (Homo sapiens) (UniProt P04275)

pKd: > 9.30
Substance: Factor VIII (from UniProt P00451)
